# Results reported in patent US20140212458A1.
# Target: BG505.T332N Env on Env-pseudotyped virus (HIV-1 BG505 (clade A))
substance,measurement,value
CD4-IgG2 (Fc fusion),"IC50, neutralization of BG505.T332N pseudovirus, TZM-bl cells",0.433 µg/mL
